Reference: patent US20170313764A1 (ACADEMISCH MEDISCH CENTRUM, published 2017)

Assays:
[1] = target: E1E2 of HCV isolate AMS.1b.20877857 (genotype 1b) (Hepatitis C virus genotype 1b); experiment: cell-based or functional assay
[2] = target: E1E2 of HCV isolate AMS.2b.20876551.kloon21 (genotype 2b) (Hepatitis C virus genotype 2b); experiment: cell-based or functional assay
[3] = target: E1E2 of HCV isolate AMS.3a.21071213 (genotype 3a) (Hepatitis C virus genotype 3a); experiment: cell-based or functional assay
[4] = target: E1E2 of HCV isolate UKN4.11.1 (genotype 4) (Hepatitis C virus genotype 4); experiment: cell-based or functional assay
[5] = target: E1E2 of HCV isolate AMS.4d.20875969 (genotype 4d) (Hepatitis C virus genotype 4d); experiment: cell-based or functional assay
[6] = target: T1, soluble E2-his6-sortase tag from HCV isolate H77 (genotype 1a) (Hepatitis C virus genotype 1a, strain …, UniProt P27958 384-717); experiment: SPR (IBIS MX96), antibody spotted on chip, soluble E2-his as analyte
T1 construct: also called E2-his6-ST; E2 genotype 1a

[7] = target: T2, soluble E2-his6-sortase tag from HCV isolate AMS.2b.20876551.kloon21 (genotype 2b) (Hepatitis C virus genotype 2b); experiment: as above
T2 chain: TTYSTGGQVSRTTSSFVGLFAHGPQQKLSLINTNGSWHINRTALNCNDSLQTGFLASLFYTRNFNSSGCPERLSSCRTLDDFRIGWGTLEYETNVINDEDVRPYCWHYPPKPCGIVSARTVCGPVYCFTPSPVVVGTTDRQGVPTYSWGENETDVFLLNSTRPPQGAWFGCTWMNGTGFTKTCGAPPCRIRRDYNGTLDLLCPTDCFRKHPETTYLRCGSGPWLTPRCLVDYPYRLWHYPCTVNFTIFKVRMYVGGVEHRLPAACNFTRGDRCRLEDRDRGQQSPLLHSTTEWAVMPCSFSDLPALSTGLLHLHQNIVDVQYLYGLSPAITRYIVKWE

[8] = target: E1E2 of HCV isolate H77 (genotype 1a), wild type (Hepatitis C virus genotype 1a, strain …, UniProt P27958 192-383; P27958 384-746); experiment: cell-based or functional assay
[9] = target: E1E2 of HCV isolate H77 with single mutation N415A (Hepatitis C virus genotype 1a, strain …, UniProt P27958 192-383; P27958 384-746); experiment: ELISA, GNA-captured E1E2 lysate; EC50 wild type / EC50 mutant
[10] = target: E1E2 of HCV isolate H77 with single mutation S424A (Hepatitis C virus genotype 1a, strain …, UniProt P27958 192-383; P27958 384-746); experiment: as above
[11] = target: E1E2 of HCV isolate H77 with single mutation T435A (Hepatitis C virus genotype 1a, strain …, UniProt P27958 192-383; P27958 384-746); experiment: as above
[12] = target: E1E2 of HCV isolate H77 with single mutation G436A (Hepatitis C virus genotype 1a, strain …, UniProt P27958 192-383; P27958 384-746); experiment: as above
[13] = target: E1E2 of HCV isolate H77 with single mutation A439G (Hepatitis C virus genotype 1a, strain …, UniProt P27958 192-383; P27958 384-746); experiment: as above
[14] = target: E1E2 of HCV isolate H77 with single mutation Y443A (Hepatitis C virus genotype 1a, strain …, UniProt P27958 192-383; P27958 384-746); experiment: as above
[15] = target: E1E2 of HCV isolate H77 with single mutation Y485A (Hepatitis C virus genotype 1a, strain …, UniProt P27958 192-383; P27958 384-746); experiment: as above
[16] = target: E1E2 of HCV isolate H77 with single mutation T526A (Hepatitis C virus genotype 1a, strain …, UniProt P27958 192-383; P27958 384-746); experiment: as above
[17] = target: E1E2 of HCV isolate H77 with single mutation Y527A (Hepatitis C virus genotype 1a, strain …, UniProt P27958 192-383; P27958 384-746); experiment: as above
[18] = target: E1E2 of HCV isolate H77 with single mutation W529A (Hepatitis C virus genotype 1a, strain …, UniProt P27958 192-383; P27958 384-746); experiment: as above
[19] = target: E1E2 of HCV isolate H77 with single mutation G530A (Hepatitis C virus genotype 1a, strain …, UniProt P27958 192-383; P27958 384-746); experiment: as above
[20] = target: E1E2 of HCV isolate H77 with single mutation D535A (Hepatitis C virus genotype 1a, strain …, UniProt P27958 192-383; P27958 384-746); experiment: as above
[21] = target: E1E2 of HCV isolate H77 with single mutation W616A (Hepatitis C virus genotype 1a, strain …, UniProt P27958 192-383; P27958 384-746); experiment: as above
[22] = target: E1E2 of HCV isolate H77 with single mutation R657A (Hepatitis C virus genotype 1a, strain …, UniProt P27958 192-383; P27958 384-746); experiment: as above
[23] = target: E1E2 of HCV isolate H77 with single mutation D698A (Hepatitis C virus genotype 1a, strain …, UniProt P27958 192-383; P27958 384-746); experiment: as above
[24] = target: E1E2 of HCV isolate H77 with single mutation L413A (Hepatitis C virus genotype 1a, strain …, UniProt P27958 192-383; P27958 384-746); experiment: as above
[25] = target: E1E2 of HCV isolate H77 with single mutation G418A (Hepatitis C virus genotype 1a, strain …, UniProt P27958 192-383; P27958 384-746); experiment: as above
[26] = target: E1E2 of HCV isolate H77 with single mutation W420A (Hepatitis C virus genotype 1a, strain …, UniProt P27958 192-383; P27958 384-746); experiment: as above
[27] = target: T3, HCV E1E2 protein in transfected 293T cells (CD81 competition assay; isolate not stated); experiment: flow cytometry competition: E1E2-transfected 293T cells pre-incubated with antibody, then CD81-LEL (mouse Fc) added and detected; blocked ligand CD81-LEL
T3 construct: also called E1E2 transfected cells

B1: AT12-011 (antibody, V domains shown)
VH: QVQLVQSGAEVKKPGSSVKVSCKASGGTFSGYGITWVRQAPGQGLEWMGTIIPVSATETYAQRLQGRVTISADEHSTTSYMEVSSLKSEDTALYYCARHDYFWGTPLDIWGQGTMVIVSS
VL: EIVLTQSPDFQSVTPKEKVTITCRASQSIGSNLHWYQQKPGQSPKLLIKYASQSFSGVPSRFSGSGSGTDFTLTINSLEAEDAATYFCHQSYNLPRTFGGGTKVEIKR
- IC50, HCVpp neutralization [1]: 4.31 µg/mL
- IC90, HCVpp neutralization [1]: > 50 µg/mL
- IC50, HCVpp neutralization [2]: 27.5 µg/mL
- IC90, HCVpp neutralization [2]: > 50 µg/mL
- IC50, HCVpp neutralization [3]: > 50 µg/mL
- IC90, HCVpp neutralization [3]: > 50 µg/mL
- IC50, HCVpp neutralization [4]: > 50 µg/mL
- IC90, HCVpp neutralization [4]: > 50 µg/mL
- IC50, HCVpp neutralization [5]: > 50 µg/mL
- IC90, HCVpp neutralization [5]: > 50 µg/mL
- Kd [6]: 0.3 nM
- Kd [7]: 0.2 nM

B2: AT13-021 (antibody, V domains shown)
VH: QVQLVQSGAEVKKPGSSVKVSCKASGGTFNTHAFSWVRQAPGEGLEWMGGISPMSGTPNYAQKFQGRLTITADESTSTGYMELRSLTSEDTAVYYCARELIGYCTGGNCYSFGDFWGQGTLITVSS
VL: EIVMTQSPATLSVSPGERATLSCRASQSVSSHLAWYQHKPGQAPRLLISGASTRAVGVPARFSGSGSGTEFTLTISSLQSEDFAVYYCHQYNTWPRGFGQGTKVDFKR
- IC50, HCVpp neutralization [8]: 0.3 µg/mL
- IC90, HCVpp neutralization [8]: 9.98 µg/mL
- IC50, HCVpp neutralization [1]: 0.09 µg/mL
- IC90, HCVpp neutralization [1]: 5.67 µg/mL
- IC50, HCVpp neutralization [2]: 0.12 µg/mL
- IC90, HCVpp neutralization [2]: 8.84 µg/mL
- IC50, HCVpp neutralization [3]: 0.25 µg/mL
- IC90, HCVpp neutralization [3]: 12.3 µg/mL
- IC50, HCVpp neutralization [4]: 0.94 µg/mL
- IC90, HCVpp neutralization [4]: 13.9 µg/mL
- IC50, HCVpp neutralization [5]: 0.94 µg/mL
- IC90, HCVpp neutralization [5]: > 50 µg/mL
- relative binding, mutant vs wild type [9]: 119%
- relative binding, mutant vs wild type [10]: 17%
- relative binding, mutant vs wild type [11]: 21%
- relative binding, mutant vs wild type [12]: < 10%
- relative binding, mutant vs wild type [13]: 53%
- relative binding, mutant vs wild type [14]: 87%
- relative binding, mutant vs wild type [15]: 114%
- relative binding, mutant vs wild type [16]: 27%
- relative binding, mutant vs wild type [17]: 21%
- relative binding, mutant vs wild type [18]: 13%
- relative binding, mutant vs wild type [19]: < 10%
- relative binding, mutant vs wild type [20]: < 10%
- relative binding, mutant vs wild type [21]: < 10%
- relative binding, mutant vs wild type [22]: 88%
- relative binding, mutant vs wild type [23]: 80%
- relative binding, mutant vs wild type [24]: 185%
- relative binding, mutant vs wild type [25]: 131%
- relative binding, mutant vs wild type [26]: 103%
- Kd [6]: 14.2 nM
- koff [6]: 0.00036 s⁻¹
- Kd [7]: 2 nM
- koff [7]: 0.0001 s⁻¹

B3: AT12-009 (antibody, V domains shown)
VH: SSVRVSCKASGDTFKTHAISWVRQAPGQGLEWVGGTVRQAPGDGLELLGGFVPILAPANDAQKFQGRVTITADGSTGPVYMDLSTLTSEDTAMYYCVTSLSEPIPRSCRGGRCYSGPFDAFGVWGQGTMVTVSS
VL: ETMLTQSPVTLSVSPGERATLSCRASQSIGTNLAWYQQKPGQAPRLLIHGASTRATGVPVSFSGSGSGTEFTLTISSLQSEDFAVYYCQQYNNWPLTFGGGTKVDFKR
- IC50, HCVpp neutralization [1]: 0.001 µg/mL
- IC90, HCVpp neutralization [1]: 0.13 µg/mL
- IC50, HCVpp neutralization [2]: 0.06 µg/mL
- IC90, HCVpp neutralization [2]: 6.17 µg/mL
- IC50, HCVpp neutralization [3]: 0.14 µg/mL
- IC90, HCVpp neutralization [3]: 5.34 µg/mL
- IC50, HCVpp neutralization [4]: 0.19 µg/mL
- IC90, HCVpp neutralization [4]: 14.1 µg/mL
- IC50, HCVpp neutralization [5]: 0.72 µg/mL
- IC90, HCVpp neutralization [5]: 47.4 µg/mL
- Kd [7]: 2.3 nM
- koff [7]: 0.0002 s⁻¹
- IC50 (read off the curve) [27]: ~2 µg/mL
